{"source": "paper PMC9483561", "about": "(The Journal of Biological Chemistry, 2022)", "biological_target": "integrin α5β1 ectodomain (α5 F1–Y954/β1 Q1–D708) (UniProt P08648;P05556)", "sequence (P08648 42-995, chain 1 of 2)": "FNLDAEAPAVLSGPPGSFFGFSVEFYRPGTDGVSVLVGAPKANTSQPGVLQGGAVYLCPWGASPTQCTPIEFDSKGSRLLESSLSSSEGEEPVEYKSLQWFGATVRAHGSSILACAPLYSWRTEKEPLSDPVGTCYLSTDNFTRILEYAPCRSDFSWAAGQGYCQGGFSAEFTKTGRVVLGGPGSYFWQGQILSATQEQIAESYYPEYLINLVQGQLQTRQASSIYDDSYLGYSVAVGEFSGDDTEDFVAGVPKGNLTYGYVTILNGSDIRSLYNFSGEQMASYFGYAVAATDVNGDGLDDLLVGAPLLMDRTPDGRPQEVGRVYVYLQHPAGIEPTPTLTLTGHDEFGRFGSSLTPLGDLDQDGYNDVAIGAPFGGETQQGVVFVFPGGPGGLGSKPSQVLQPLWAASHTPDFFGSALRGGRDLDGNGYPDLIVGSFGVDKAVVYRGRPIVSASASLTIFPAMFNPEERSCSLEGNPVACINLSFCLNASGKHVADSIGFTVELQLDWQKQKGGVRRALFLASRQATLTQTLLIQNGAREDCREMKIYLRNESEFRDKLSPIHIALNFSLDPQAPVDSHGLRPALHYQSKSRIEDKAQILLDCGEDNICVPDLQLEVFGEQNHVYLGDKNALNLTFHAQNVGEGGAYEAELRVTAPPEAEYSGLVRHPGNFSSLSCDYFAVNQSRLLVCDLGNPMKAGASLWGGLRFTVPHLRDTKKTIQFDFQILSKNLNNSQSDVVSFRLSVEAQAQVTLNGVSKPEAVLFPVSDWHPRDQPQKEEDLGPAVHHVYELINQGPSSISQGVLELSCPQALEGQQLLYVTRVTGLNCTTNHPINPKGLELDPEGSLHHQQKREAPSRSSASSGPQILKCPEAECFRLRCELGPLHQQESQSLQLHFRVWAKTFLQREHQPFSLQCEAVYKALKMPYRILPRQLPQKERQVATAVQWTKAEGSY", "sequence (P05556 21-728, chain 2 of 2)": "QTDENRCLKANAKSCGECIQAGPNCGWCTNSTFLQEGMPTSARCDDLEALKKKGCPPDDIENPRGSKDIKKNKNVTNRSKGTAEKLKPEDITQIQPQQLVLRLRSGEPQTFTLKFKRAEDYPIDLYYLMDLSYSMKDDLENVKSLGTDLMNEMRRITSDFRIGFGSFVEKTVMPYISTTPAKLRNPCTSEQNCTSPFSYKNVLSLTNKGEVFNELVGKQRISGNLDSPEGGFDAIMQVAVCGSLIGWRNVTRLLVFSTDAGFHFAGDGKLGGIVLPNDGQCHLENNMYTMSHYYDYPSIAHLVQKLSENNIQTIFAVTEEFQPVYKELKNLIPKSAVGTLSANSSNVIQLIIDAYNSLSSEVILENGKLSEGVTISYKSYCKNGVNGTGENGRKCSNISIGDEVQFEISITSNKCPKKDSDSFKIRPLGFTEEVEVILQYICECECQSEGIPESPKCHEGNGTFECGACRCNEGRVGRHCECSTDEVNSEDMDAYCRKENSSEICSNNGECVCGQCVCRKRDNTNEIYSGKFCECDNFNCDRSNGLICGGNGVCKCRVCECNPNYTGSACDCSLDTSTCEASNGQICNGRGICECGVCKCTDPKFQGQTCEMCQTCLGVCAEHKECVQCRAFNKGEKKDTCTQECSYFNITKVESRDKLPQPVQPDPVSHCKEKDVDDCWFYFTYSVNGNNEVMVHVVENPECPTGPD", "assay": "fluorescence polarisation"}
{"binder": "fibronectin fragment Fn10 (V1416–T1509) (domain or fragment) not shown", "values": [{"measurement": "binding result", "result": "binds"}]}
